Data published in the supplement of paper PMC9112550, “Optimization of the antimicrobial peptide Bac7 by deep mutational scanning” (BMC Biology, 2022).

test system: Escherichia coli TOP10; assay: shrunken log2 fold change of peptide-encoding DNA abundance (4.5 h post-induction vs induction); higher = less antimicrobial activity (less host growth inhibition); conditions: time post-induction: 4.5 h; library: site-saturation at positions 5, 18, 19, 20
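Note: peptides expressed intracellularly from a pBAD plasmid library in pooled LB shake-flask culture, induced with 0.3% L-arabinose, DNA abundance read by NGS, three biological replicates, DESeq2 with apeglm shrinkage.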

Point of comparison: RRIRQRPPRLPRPRPRPVKQPRP, “shrunken log2 fold change” value -0.0153. Against it:
- RRIRARPPRLPRPRPRPVCFPRP — higher, 0.489
- RRIRKRPPRLPRPRPRPGNPPRP — higher, 0.85
- RRIRSRPPRLPRPRPRPDANPRP — within 0.2 log units, 0.183
- RRIRMRPPRLPRPRPRPIPQPRP — higher, 0.256
- RRIRARPPRLPRPRPRPRDTPRP — higher, 0.673
- RRIRDRPPRLPRPRPRPHSTPRP — within 0.2 log units, -0.0545
- RRIRKRPPRLPRPRPRPPMAPRP — higher, 0.41
- RRIRNRPPRLPRPRPRPLHIPRP — lower, -0.363
- RRIRYRPPRLPRPRPRPWCAPRP — lower, -0.255
- RRIRPRPPRLPRPRPRPYSKPRP — lower, -0.868
- RRIRSRPPRLPRPRPRPEERPRP — higher, 0.826
- RRIRVRPPRLPRPRPRPYIYPRP — lower, -0.806
- RRIRTRPPRLPRPRPRPDICPRP — within 0.2 log units, 0.0407
- RRIRHRPPRLPRPRPRPMCSPRP — within 0.2 log units, -0.0225
- RRIRARPPRLPRPRPRPGNDPRP — within 0.2 log units, -0.00116
- RRIRERPPRLPRPRPRPGRKPRP — within 0.2 log units, -0.12
- RRIRLRPPRLPRPRPRPTDRPRP — within 0.2 log units, -0.00223
- RRIRMRPPRLPRPRPRPGLKPRP — higher, 0.363
- RRIRRRPPRLPRPRPRPTAEPRP — within 0.2 log units, -0.0162
- RRIRQRPPRLPRPRPRPAPWPRP — higher, 0.548
- RRIRRRPPRLPRPRPRPIMIPRP — within 0.2 log units, -0.105
- RRIRIRPPRLPRPRPRPKSLPRP — within 0.2 log units, 0.0615
- RRIRVRPPRLPRPRPRPSYMPRP — lower, -1.16
- RRIRHRPPRLPRPRPRPDDAPRP — within 0.2 log units, 0.0602
- RRIRHRPPRLPRPRPRPCPTPRP — lower, -0.258
- RRIRMRPPRLPRPRPRPERAPRP — higher, 2.76
- RRIRSRPPRLPRPRPRPHRIPRP — lower, -0.706
- RRIRVRPPRLPRPRPRPTMNPRP — lower, -0.353
- RRIRNRPPRLPRPRPRPPTLPRP — within 0.2 log units, -0.204
- RRIRKRPPRLPRPRPRPLDEPRP — within 0.2 log units, 0.0161
- RRIRNRPPRLPRPRPRPINTPRP — lower, -0.574
- RRIRKRPPRLPRPRPRPKHNPRP — within 0.2 log units, 0.0641
- RRIRFRPPRLPRPRPRPYVKPRP — lower, -0.787
- RRIRARPPRLPRPRPRPSMFPRP — within 0.2 log units, 0.00699
- RRIRQRPPRLPRPRPRPEVRPRP — within 0.2 log units, 0.0665
- RRIRFRPPRLPRPRPRPHHQPRP — lower, -0.963
- RRIRMRPPRLPRPRPRPPCSPRP — higher, 0.489
- RRIRDRPPRLPRPRPRPQTWPRP — within 0.2 log units, -0.109
- RRIRKRPPRLPRPRPRPVFTPRP — within 0.2 log units, -0.0937
- RRIRTRPPRLPRPRPRPSWIPRP — lower, -0.525
- RRIRKRPPRLPRPRPRPPPMPRP — higher, 0.826
- RRIRFRPPRLPRPRPRPKGLPRP — within 0.2 log units, -0.146
- RRIRLRPPRLPRPRPRPMRWPRP — higher, 0.278
- RRIRIRPPRLPRPRPRPTVMPRP — within 0.2 log units, -0.0131
- RRIRQRPPRLPRPRPRPHSVPRP — within 0.2 log units, -0.0178
- RRIRSRPPRLPRPRPRPVLSPRP — within 0.2 log units, 0.0825
- RRIRARPPRLPRPRPRPGWMPRP — within 0.2 log units, -0.168
- RRIRYRPPRLPRPRPRPDQFPRP — lower, -0.435
- RRIRVRPPRLPRPRPRPHEAPRP — within 0.2 log units, 0.145
- RRIRMRPPRLPRPRPRPYPIPRP — within 0.2 log units, 0.0414
- RRIRLRPPRLPRPRPRPCHPPRP — within 0.2 log units, 0.159
- RRIRTRPPRLPRPRPRPQHTPRP — lower, -0.733
- RRIRERPPRLPRPRPRPDVKPRP — within 0.2 log units, -0.213
- RRIRRRPPRLPRPRPRPLFQPRP — higher, 0.246
- RRIRFRPPRLPRPRPRPPDKPRP — within 0.2 log units, 0.151
- RRIRCRPPRLPRPRPRPFTDPRP — within 0.2 log units, -0.182
- RRIRVRPPRLPRPRPRPMWTPRP — within 0.2 log units, -0.0192
- RRIRWRPPRLPRPRPRPTIEPRP — within 0.2 log units, 0.145
- RRIRRRPPRLPRPRPRPKQAPRP — higher, 0.908
- RRIRHRPPRLPRPRPRPNNNPRP — lower, -1.09
- RRIRRRPPRLPRPRPRPGSWPRP — higher, 0.189
- RRIRIRPPRLPRPRPRPVQRPRP — within 0.2 log units, -0.039
- RRIRLRPPRLPRPRPRPKHSPRP — within 0.2 log units, -0.107
- RRIRGRPPRLPRPRPRPPRWPRP — higher, 1.17
- RRIRIRPPRLPRPRPRPHVNPRP — higher, 2.48
- RRIRTRPPRLPRPRPRPMCVPRP — within 0.2 log units, 0.103
- RRIRERPPRLPRPRPRPNKEPRP — within 0.2 log units, -0.0147
- RRIRWRPPRLPRPRPRPYNCPRP — lower, -0.331
- RRIRVRPPRLPRPRPRPSPFPRP — lower, -0.442
- RRIRTRPPRLPRPRPRPHPHPRP — within 0.2 log units, 0.0583
- RRIRKRPPRLPRPRPRPWVDPRP — higher, 0.572
- RRIRMRPPRLPRPRPRPEWCPRP — higher, 0.234
- RRIRARPPRLPRPRPRPRTLPRP — higher, 0.226
- RRIRVRPPRLPRPRPRPQKCPRP — within 0.2 log units, -0.0983
- RRIRVRPPRLPRPRPRPNFLPRP — within 0.2 log units, -0.0134
- RRIRSRPPRLPRPRPRPCIRPRP — lower, -0.416
- RRIRWRPPRLPRPRPRPKWIPRP — within 0.2 log units, -0.0267
- RRIRQRPPRLPRPRPRPAMVPRP — higher, 0.206
- RRIRTRPPRLPRPRPRPATIPRP — within 0.2 log units, -0.0446
- RRIRNRPPRLPRPRPRPEYLPRP — within 0.2 log units, 0.0183
- RRIRKRPPRLPRPRPRPTPCPRP — higher, 0.692
- RRIRPRPPRLPRPRPRPIGSPRP — within 0.2 log units, 0.0547
- RRIRHRPPRLPRPRPRPLMNPRP — lower, -0.642
- RRIRMRPPRLPRPRPRPMGLPRP — within 0.2 log units, 0.0299
- RRIRHRPPRLPRPRPRPHNGPRP — lower, -0.362
- RRIRDRPPRLPRPRPRPDVRPRP — within 0.2 log units, 0.0212
- RRIRARPPRLPRPRPRPFRNPRP — lower, -0.575
- RRIRYRPPRLPRPRPRPQEDPRP — within 0.2 log units, -0.135
- RRIRRRPPRLPRPRPRPRLVPRP — higher, 0.527
- RRIRTRPPRLPRPRPRPFAFPRP — within 0.2 log units, 0.0192
- RRIRFRPPRLPRPRPRPGMEPRP — within 0.2 log units, 0.0216
- RRIRYRPPRLPRPRPRPFIRPRP — lower, -0.942
- RRIRTRPPRLPRPRPRPWCHPRP — lower, -0.732
- RRIRKRPPRLPRPRPRPVIVPRP — within 0.2 log units, -0.0233
- RRIRARPPRLPRPRPRPTHHPRP — higher, 0.468
- RRIRKRPPRLPRPRPRPIHAPRP — within 0.2 log units, -0.000921
- RRIRARPPRLPRPRPRPPNMPRP — within 0.2 log units, -0.0722
- RRIRHRPPRLPRPRPRPGCPPRP — within 0.2 log units, -0.0112
- RRIRRRPPRLPRPRPRPHPNPRP — higher, 0.246
- RRIRHRPPRLPRPRPRPYTVPRP — within 0.2 log units, 0.0229
- RRIRPRPPRLPRPRPRPMNNPRP — lower, -0.916
- RRIRDRPPRLPRPRPRPRHEPRP — within 0.2 log units, -0.000978
- RRIRWRPPRLPRPRPRPEGAPRP — higher, 1.13
- RRIRMRPPRLPRPRPRPKFLPRP — higher, 0.192
- RRIRFRPPRLPRPRPRPNHVPRP — lower, -0.276
- RRIRKRPPRLPRPRPRPQYSPRP — lower, -0.906
- RRIRDRPPRLPRPRPRPLFGPRP — higher, 0.341
- RRIRPRPPRLPRPRPRPSNSPRP — lower, -0.794
- RRIRWRPPRLPRPRPRPFCYPRP — lower, -0.418
- RRIRMRPPRLPRPRPRPDTDPRP — within 0.2 log units, 0.0472
- RRIRRRPPRLPRPRPRPKWDPRP — within 0.2 log units, 0.139
- RRIRIRPPRLPRPRPRPVHGPRP — within 0.2 log units, -0.0643
- RRIRCRPPRLPRPRPRPPPDPRP — higher, 1.26
- RRIRLRPPRLPRPRPRPRRVPRP — within 0.2 log units, 0.0457
- RRIRIRPPRLPRPRPRPSKCPRP — lower, -0.788
- RRIRGRPPRLPRPRPRPIWMPRP — higher, 0.245
- RRIRGRPPRLPRPRPRPWPSPRP — higher, 0.258
- RRIRFRPPRLPRPRPRPAYYPRP — lower, -0.227
- RRIRHRPPRLPRPRPRPANFPRP — within 0.2 log units, -0.0325
- RRIRGRPPRLPRPRPRPRIGPRP — higher, 0.779
- RRIRVRPPRLPRPRPRPMNMPRP — lower, -0.426
- RRIRDRPPRLPRPRPRPHPRPRP — within 0.2 log units, 0.081
- RRIRRRPPRLPRPRPRPDETPRP — higher, 0.745
- RRIRNRPPRLPRPRPRPTIDPRP — lower, -0.492
